In doi:10.1101/2025.08.03.668247, “The structure of Egalitarian in complex with the K10 mRNA localization signal reveals a modular binding surface required for function”:

How the values were obtained:
[1] = target: T1, K754E (Drosophila melanogaster, UniProt Q9W1K4 512-819, K754E); assay: fluorescence anisotropy; FA: 20 mM HEPES-NaOH pH 7.5, 100 mM NaCl, 10% glycerol, 20 C, 10 nM FAM-RNA; competition: 150 nM Egl512-819 + 10 nM FAM-K10 TLS, same buffer; conditions: protein: recombinant; tags: N-terminal GST; label: 5'-6-FAM; hairpin with two bulges
T1 sequence: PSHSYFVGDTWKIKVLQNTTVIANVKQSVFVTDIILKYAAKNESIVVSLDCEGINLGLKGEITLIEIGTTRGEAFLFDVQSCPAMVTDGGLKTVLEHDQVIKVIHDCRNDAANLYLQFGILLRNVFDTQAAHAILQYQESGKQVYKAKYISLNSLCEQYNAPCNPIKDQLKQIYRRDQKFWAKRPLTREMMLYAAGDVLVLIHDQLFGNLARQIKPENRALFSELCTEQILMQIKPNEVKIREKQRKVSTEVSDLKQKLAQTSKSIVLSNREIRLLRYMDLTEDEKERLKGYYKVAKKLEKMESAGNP

[2] = target: T2, GST-Egl512-819 (Drosophila melanogaster, UniProt Q9W1K4 512-819); assay: as above; conditions: protein: recombinant; tags: N-terminal GST (TEV site); label: 5'-6-FAM; hairpin with two bulges
T2 sequence: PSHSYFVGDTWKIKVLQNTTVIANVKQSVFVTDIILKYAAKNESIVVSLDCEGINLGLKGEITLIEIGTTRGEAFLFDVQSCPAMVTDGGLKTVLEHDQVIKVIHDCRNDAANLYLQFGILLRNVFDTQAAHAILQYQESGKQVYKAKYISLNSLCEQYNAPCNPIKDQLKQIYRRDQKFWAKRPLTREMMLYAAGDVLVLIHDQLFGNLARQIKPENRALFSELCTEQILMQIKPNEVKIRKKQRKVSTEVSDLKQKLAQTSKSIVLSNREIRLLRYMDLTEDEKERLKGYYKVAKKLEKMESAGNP

[3] = target: T3, K754A (Drosophila melanogaster, UniProt Q9W1K4 512-819, K754A); assay: as above; conditions: protein: recombinant; tags: N-terminal GST; label: 5'-6-FAM; hairpin with two bulges
T3 sequence: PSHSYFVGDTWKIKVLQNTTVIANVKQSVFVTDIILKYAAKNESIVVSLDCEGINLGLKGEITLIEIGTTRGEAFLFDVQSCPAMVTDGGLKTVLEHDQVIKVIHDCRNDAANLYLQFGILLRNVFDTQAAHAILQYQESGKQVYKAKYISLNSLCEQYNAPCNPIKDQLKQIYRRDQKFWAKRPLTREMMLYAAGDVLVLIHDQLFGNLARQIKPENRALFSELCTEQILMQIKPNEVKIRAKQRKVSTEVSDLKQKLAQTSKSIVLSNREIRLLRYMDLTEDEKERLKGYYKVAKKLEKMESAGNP

[4] = target: T4, EXO-L (Egl512-770) (Drosophila melanogaster, UniProt Q9W1K4 512-770); assay: as above; conditions: protein: recombinant; tags: N-terminal GST; label: 5'-6-FAM; hairpin with two bulges
T4 sequence: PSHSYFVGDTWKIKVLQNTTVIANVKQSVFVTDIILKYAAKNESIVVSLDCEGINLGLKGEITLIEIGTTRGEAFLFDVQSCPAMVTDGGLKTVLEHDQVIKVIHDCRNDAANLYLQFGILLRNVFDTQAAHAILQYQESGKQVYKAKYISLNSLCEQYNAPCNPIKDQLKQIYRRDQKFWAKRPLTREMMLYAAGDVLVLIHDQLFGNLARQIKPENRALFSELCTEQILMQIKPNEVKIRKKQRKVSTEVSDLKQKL

[5] = target: T5, R753A/K754A/K755A (Drosophila melanogaster, UniProt Q9W1K4 512-819, R753A;K754A;K755A); assay: as above; conditions: protein: recombinant; tags: N-terminal GST; label: 5'-6-FAM; hairpin with two bulges
T5 sequence: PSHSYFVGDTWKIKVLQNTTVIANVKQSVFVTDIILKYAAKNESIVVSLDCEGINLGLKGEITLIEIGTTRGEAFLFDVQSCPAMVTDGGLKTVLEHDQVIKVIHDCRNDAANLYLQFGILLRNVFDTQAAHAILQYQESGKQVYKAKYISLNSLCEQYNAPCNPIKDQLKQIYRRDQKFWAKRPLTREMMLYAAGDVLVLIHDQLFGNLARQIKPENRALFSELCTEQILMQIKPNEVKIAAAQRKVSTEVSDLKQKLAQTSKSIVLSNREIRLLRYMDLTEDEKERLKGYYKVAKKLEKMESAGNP

[6] = target: T6, K659E/K754E/R788E (Drosophila melanogaster, UniProt Q9W1K4 512-819, K659E;K754E;R788E); assay: fluorescence anisotropy; binding not detected; FA: 20 mM HEPES-NaOH pH 7.5, 100 mM NaCl, 10% glycerol, 20 C, 10 nM FAM-RNA; competition: 150 nM Egl512-819 + 10 nM FAM-K10 TLS, same buffer; conditions: protein: recombinant; tags: N-terminal GST; label: 5'-6-FAM; hairpin with two bulges
T6 sequence: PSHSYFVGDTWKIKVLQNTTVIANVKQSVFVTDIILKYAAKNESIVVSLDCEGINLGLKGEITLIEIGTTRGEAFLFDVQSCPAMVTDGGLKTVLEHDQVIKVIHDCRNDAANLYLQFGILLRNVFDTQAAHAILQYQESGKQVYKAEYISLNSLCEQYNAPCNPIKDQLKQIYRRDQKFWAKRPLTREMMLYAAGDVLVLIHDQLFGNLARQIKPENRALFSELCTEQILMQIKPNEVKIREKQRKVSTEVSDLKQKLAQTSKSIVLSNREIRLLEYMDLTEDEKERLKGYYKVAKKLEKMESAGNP

In the case of CUUGAUUGUAUUUUUAAAUUAAUUCUUAAAAACUACAAAUUAAG (structured_RNA) [K10 TLS (FAM)], the Kd [1] is reported as 263 ± 16 nM, the Kd [2] is reported as 130 ± 6 nM and the Kd [3] is reported as 212 ± 8 nM. For the same binder, the Kd [4] was 807 ± 104 nM, the Kd [5] was 222 ± 19 nM and the binding result [6] was “no binding”.
